How the values were obtained:
[1] = target: monomeric P301S 2N4R tau, pHrodo-labelled (human) (UniProt P10636); test: cell-based or functional assay
[2] = target: aggregated (oligomeric) P301S 2N4R tau, pHrodo-labelled (human) (UniProt P10636); test: cell-based or functional assay
Sequence of aggregated (oligomeric) P301S 2N4R tau, pHrodo-labelled (human) (P10636 other isoform, or with tags, fused parts or gaps P301S P301S): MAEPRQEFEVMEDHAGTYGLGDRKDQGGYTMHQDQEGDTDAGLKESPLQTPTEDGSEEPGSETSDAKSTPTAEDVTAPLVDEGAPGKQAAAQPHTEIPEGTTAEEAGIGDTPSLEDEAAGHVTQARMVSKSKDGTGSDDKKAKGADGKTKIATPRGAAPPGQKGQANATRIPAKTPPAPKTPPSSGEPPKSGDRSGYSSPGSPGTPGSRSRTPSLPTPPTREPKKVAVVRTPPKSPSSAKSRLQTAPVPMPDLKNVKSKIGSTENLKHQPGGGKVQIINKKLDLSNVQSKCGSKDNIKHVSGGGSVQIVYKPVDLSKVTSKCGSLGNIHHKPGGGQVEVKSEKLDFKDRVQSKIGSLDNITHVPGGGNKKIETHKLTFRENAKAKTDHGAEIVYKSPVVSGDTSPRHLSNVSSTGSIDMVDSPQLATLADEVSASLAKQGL

Sequence of monomeric P301S 2N4R tau, pHrodo-labelled (human) (P10636 other isoform, or with tags, fused parts or gaps P301S P301S): as above

inhibition of monomeric tau uptake into human iPSC-derived neurons [1]: 6.2% | inhibition of aggregated tau uptake into human iPSC-derived neurons [2]: 14.3%
Substance: isotype control human IgG1 (anti-fluorescein, Absolute Antibody)

From patent US20250270301A1
